The target of the assay is sGFP-foldon. Description: single-molecule fluorescence brightness analysis; GFP-fused proteins expressed in LTE (2-3 h, 27 °C), diluted about 10 times in buffer A (25 mM HEPES, 50 mM NaCl), 1-100 nanomolar, freely diffusing through a confocal volume, room temperature; also with serial dilution of the plasmid to vary the final expression level.

sGFP-foldon, sequence (P10104 2-487): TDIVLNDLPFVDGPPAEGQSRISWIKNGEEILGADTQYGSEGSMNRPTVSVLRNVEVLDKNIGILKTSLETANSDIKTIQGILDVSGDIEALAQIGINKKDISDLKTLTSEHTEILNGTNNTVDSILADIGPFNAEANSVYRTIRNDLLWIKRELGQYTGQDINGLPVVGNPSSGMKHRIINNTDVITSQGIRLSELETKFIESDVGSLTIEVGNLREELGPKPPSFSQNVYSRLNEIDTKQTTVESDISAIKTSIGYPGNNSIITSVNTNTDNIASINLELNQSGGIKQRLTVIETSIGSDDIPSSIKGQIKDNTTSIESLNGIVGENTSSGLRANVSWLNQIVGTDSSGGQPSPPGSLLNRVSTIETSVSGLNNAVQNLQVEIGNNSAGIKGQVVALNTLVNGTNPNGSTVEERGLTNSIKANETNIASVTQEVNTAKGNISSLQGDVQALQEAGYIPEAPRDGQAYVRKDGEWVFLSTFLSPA

As usually defined, the stoichiometry N is the number of molecules, sites or subunits per partner or assembly. Regarding sGFP-foldon (domain or fragment), the stoichiometry N was determined as 3.

(Values after PMC5385372.)
